Experiment [1] has as its target T1, 15N-labelled NHR4 MYND domain of RUNX1T1 (UniProt Q06455 510-559, 15N-labelled).
T1 chain: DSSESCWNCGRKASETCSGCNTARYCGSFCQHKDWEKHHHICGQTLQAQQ
Kind of experiment: NMR; pH 6.

The target in experiment [2] is T1, 15N-labelled NHR4 MYND domain of RUNX1T1. Nature of the experiment: NMR; pH 7.5.

In the case of Ac-LNQPPPPLIRPAN-NH2 [RCOR3_3 peptide (human RCOR3 residues 448-460)], the Kd – broadly, the free concentration of one partner at which half of the binding sites on the other are occupied at equilibrium, for simple one-to-one binding – stood at 680 µM in experiment [1] and 370 µM in experiment [2].
With Ac-TISNPPPLISSAK-NH2 [NCOR2 peptide (human NCOR2 residues 1101-1113)], binding in experiment [1] was characterised by a dissociation constant (Kd) of 370 µM.
Same read-out and setting: the result for Ac-TLNQPPPLLRPTL-NH2 [RCOR3_1 peptide (human RCOR3 residues 410-422)] reads 820 µM.

The values above are taken from PMC11239676 (2024).
